Changes are numbered by the printed parent chain.

This assay concerns the target T1, human Nectin-4 extracellular antigen hNectin-4-His (human, UniProt Q96NY8 32-349).
T1 construct: C-terminal 8xHis tag included
T1 sequence: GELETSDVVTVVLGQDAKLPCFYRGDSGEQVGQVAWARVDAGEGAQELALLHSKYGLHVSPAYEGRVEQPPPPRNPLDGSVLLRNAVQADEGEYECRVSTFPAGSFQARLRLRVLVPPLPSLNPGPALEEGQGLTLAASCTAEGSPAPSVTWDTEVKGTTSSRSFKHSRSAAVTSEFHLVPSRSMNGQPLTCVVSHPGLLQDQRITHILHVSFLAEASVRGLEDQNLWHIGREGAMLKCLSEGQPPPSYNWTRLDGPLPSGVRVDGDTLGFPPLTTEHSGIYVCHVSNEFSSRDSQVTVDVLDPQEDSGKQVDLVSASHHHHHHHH
The assay can be described thus: ELISA, phage scFv supernatant 1:50. As to the method: The supernatants were diluted 50-fold, and the binding OD values of the diluted supernatants to hNectin-4-His were measured by ELISA. The samples were serially 3-fold diluted, and the EC₅₀ titer for the binding of the supernatants to the antigen was measured by ELISA. […] The light chain variable region sequence is set forth in SEQ ID NO: 25. The OD value is the measurement of ELISA, and the EC₅₀ value denotes the EC₅₀ value of the binding activity titer of the supernatant to the antigen.
A general note: ELISA stands for enzyme-linked immunosorbent assay.

B1: 1G8-1C8 scFv (scFv, V domains shown)
VH: EVQLVESGGGLVQPGGSLRLSCAASGFSFGSSAMSWVRQAPGKGLEWVSAISGSSDSPRYADSVKGRFTISRDNSKNTLYLQMNSLRAEDTAVYYCARQTEDRSYGYDLDYWGQGTLVTVSS
VL: DIQMTQSPSSLSASVGDRVTITCRASQGISSYLAWYQQKPGKAPKLLIYAASSLQSGVPSRFSGSGSGTDFTLTISSLQPEDFATYYCQQHYTTPPTFGQGTKVEIKR
notes: phage clone supernatant
The molecule B1 showed an OD value of 1.59 OD.

B2: 1G8-1D11 scFv (scFv, V domains shown)
VH: EVQLVESGGGLVQPGGSLRLSCAASGDIFTGYAMSWVRQAPGKGLEWVSRIDGTGDSKFYADSVKGRFTISRDNSKNTLYLQMNSLRAEDTAVYYCARQTEDRSYGYDLDYWGQGTLVTVSS
VL: B1 VL
notes: phage clone supernatant
As to B2, the OD value was found to be 1.59 OD.

B3: 1G8-2C6 scFv (scFv, V domains shown)
VH: B2 VH with I28N, T30S, G31S, D52Y, T54S, G55D, D56S, S57T, K58P, F59D
VL: B1 VL
notes: phage clone supernatant
On to B3, for which the OD value came out at 1.58 OD.

B4: 1G8-2B5 scFv (scFv, V domains shown)
VH: EVQLVESGGGLVQPGGSLRLSCAASGYNFGNYAMSWVRQAPGKGLEWVSRIKSHDSTSHYADSVKGRFTISRDNSKNTLYLQMNSLRAEDTAVYYCARQTEDRSYGYDLDYWGQGTLVTVSS
VL: B1 VL
notes: phage clone supernatant
In the case of B4, the OD value turned out to be 1.58 OD.

B5: 1G8-2A4 scFv (scFv, V domains shown)
VH: EVQLVESGGGLVQPGGSLRLSCAASGDTFSSNAMSWVRQAPGKGLEWVSRIYGGSWDTDYADSVKGRFTISRDNSKNTLYLQMNSLRAEDTAVYYCARQTEDRSYGYDLDYWGQGTLVTVSS
VL: B1 VL
notes: phage clone supernatant
B5 registered an OD value of 1.54 OD.

B6: 1G8-2D9 scFv (scFv, V domains shown)
VH: B2 VH with T30D, A33S, G53T, T54G, D56S, S57V, F59N
VL: B1 VL
notes: phage clone supernatant
The molecule B6 registered an OD value of 1.54 OD.

B7: 1G8-1C10 scFv (scFv, V domains shown)
VH: B4 VH with Y27F, G30S, N31D, A33S, S53A, H54S, D55S, S56G, T57G, H59D
VL: B1 VL
notes: phage clone supernatant
In the case of B7, the OD value was determined as 1.61 OD.

B8: 1G8-1D7 scFv (scFv, V domains shown)
VH: EVQLVESGGGLVQPGGSLRLSCAASGGSFSNYAMSWVRQAPGKGLEWVSWIDTTSAYASYADSVKGRFTISRDNSKNTLYLQMNSLRAEDTAVYYCARQTEDRSYGYDLDYWGQGTLVTVSS
VL: B1 VL
notes: phage clone supernatant
B8 yielded an OD value of 1.49 OD.

B9: 1G8-1E8 scFv (scFv, V domains shown)
VH: B5 VH with D27F, S30D, S31G, N32Y, Y52S, G53S, G54Y, D57N, T58P
VL: B1 VL
notes: phage clone supernatant
Consider B9, for which the OD value is 1.55 OD.

B10: 1G8-1G3 scFv (scFv, V domains shown)
VH: B1 VH with S28N, S31T, S32Y, A50R, S54I, D56A, S57G, P58T, R59N
VL: B1 VL
notes: phage clone supernatant
Molecule B10 gave an OD value of 1.58 OD.

B11: 1G8-1E12 scFv (scFv, V domains shown)
VH: B5 VH with D27F, T28N, S30T, N32Y, Y52S, G53A, G54H, S55K, T58A, D59S
VL: B1 VL
notes: phage clone supernatant
The molecule B11 yielded an OD value of 1.61 OD.

B12: 1G8-1G5 scFv (scFv, V domains shown)
VH: EVQLVESGGGLVQPGGSLRLSCAASGYNFTTSAMSWVRQAPGKGLEWVSRIYADTAYNDYADSVKGRFTISRDNSKNTLYLQMNSLRAEDTAVYYCARQTEDRSYGYDLDYWGQGTLVTVSS
VL: B1 VL
notes: phage clone supernatant
B12 registered an OD value of 1.48 OD.

B13: 1G8-2A11 scFv (scFv, V domains shown)
VH: B2 VH with I28S, T30Y, G31N, A33S, D52S, G53S, T54D, D56W, S57E, K58T
VL: B1 VL
notes: phage clone supernatant
Molecule B13 had an OD value of 1.54 OD.

B14: 1G8-1E10 scFv (scFv, V domains shown)
VH: B2 VH with I28S, T30S, G31T, D52S, T54S, S57G, F59D
VL: B1 VL
notes: phage clone supernatant
In turn, B14 registered an OD value of 1.6 OD.

B15: 1G8-2A7 scFv (scFv, V domains shown)
VH: B2 VH with D27Y, I28S, T30S, G31D, D52S, G53A, T54Y, D56W, S57G, F59S
VL: B1 VL
notes: phage clone supernatant
B15: the OD value was 1.6 OD.

B16: 1G8-1F11 scFv (scFv, V domains shown)
VH: B5 VH with N32Y, Y52S, G53Q, G54T, S55G, W56G, D57T
VL: B1 VL
notes: phage clone supernatant
B16 came in with an OD value of 1.6 OD.

B17: 1G8-2C7 scFv (scFv, V domains shown)
VH: B2 VH with D27Y, I28S, G31N, Y32F, D52S, G53Q, T54D, D56G, S57N, F59N
VL: B1 VL
notes: phage clone supernatant
As for B17, the OD value is 1.58 OD.

B18: 1G8-1F7 scFv (scFv, V domains shown)
VH: B2 VH with D27Y, I28S, T30Y, R50A, G53A, T54I, D56G, S57N, F59R
VL: B1 VL
notes: phage clone supernatant
For the molecule B18, the OD value came out at 1.58 OD.

B19: 1G8-2B10 scFv (scFv, V domains shown)
VH: B8 VH with G27F, S30T, Y32N, W50R, T54I, S55G, A56G, Y57T, A58S
VL: B1 VL
notes: phage clone supernatant
For B19, the OD value worked out at 1.56 OD.

B20: 1G8-2B3 scFv (scFv, V domains shown)
VH: B12 VH with A53Q, T55S, A56S, Y57T, N58T
VL: B1 VL
notes: phage clone supernatant
For B20, the OD value was 1.57 OD.

B21: 1G8-2A1 scFv (scFv, V domains shown)
VH: B4 VH with N28S, G30D, N31G, Y32F, K52S, S53G, S56W, T57S, H59S
VL: B1 VL
notes: phage clone supernatant
The molecule B21 yielded an OD value of 1.6 OD.

B22: 1G8-1H6 scFv (scFv, V domains shown)
VH: B5 VH with D27F, T28N, S31G, N32F, G53P, G54T, W56S, D57E, T58S
VL: B1 VL
notes: phage clone supernatant
For the molecule B22, the OD value was determined as 1.58 OD.

B23: 1G8-2E7 scFv (scFv, V domains shown)
VH: B4 VH with N28T, K52S, S53P, H54S, D55T, S56W, T57N, S58I, H59D
VL: B1 VL
notes: phage clone supernatant
As to B23, the OD value is 1.56 OD.

B24: 1G8-1H1 scFv (scFv, V domains shown)
VH: B5 VH with S31G, N32Y, G53P, G54Y, W56S, D57V, T58R
VL: B1 VL
notes: phage clone supernatant
For B24, the OD value worked out at 1.4 OD.

B25: 1G8-2D11 scFv (scFv, V domains shown)
VH: B5 VH with D27Y, T28S, S31G, Y52D, G54W, S55G, W56S, D57Y
VL: B1 VL
notes: phage clone supernatant
B25 returned an OD value of 1.53 OD.

B26: 1G8-2D7 scFv (scFv, V domains shown)
VH: B1 VH with F27D, G30T, S32Y, A50R, G53A, S54D, D56A, R59S
VL: B1 VL
notes: phage clone supernatant
The molecule B26 registered an OD value of 1.54 OD.

B27: 1G8-1E6 scFv (scFv, V domains shown)
VH: B2 VH with D27Y, G31D, A33S, D52Y, G53T, T54D, D56W, S57E, F59D
VL: B1 VL
notes: phage clone supernatant
B27: the OD value was found to be 1.48 OD.

B28: 1G8-2D6 scFv (scFv, V domains shown)
VH: B2 VH with D27F, I28S, T30D, D52S, G53A, T54H, G55S, D56W, S57N, F59D
VL: B1 VL
notes: phage clone supernatant
As to B28, the OD value turned out to be 1.63 OD.

B29: 1G8-1G9 scFv (scFv, V domains shown)
VH: B4 VH with Y27F, N31D, Y32F, K52Y, H54G, S56D, T57N, S58A, H59S
VL: B1 VL
notes: phage clone supernatant
Consider B29, for which the OD value worked out at 1.55 OD.

B30: 1G8-1G12 scFv (scFv, V domains shown)
VH: B12 VH with T31S, A53S, D54I, T55S, A56G, Y57N, N58T
VL: B1 VL
notes: phage clone supernatant
The molecule B30 yielded an OD value of 1.55 OD.

B31: 1G8-2B6 scFv (scFv, V domains shown)
VH: B12 VH with Y27G, N28S, T30G, T31G, S32Y, D54Y, T55K, A56S, Y57E
VL: B1 VL
notes: phage clone supernatant
For the molecule B31, the OD value was 1.56 OD.
